Assay results reported in paper PMC11444262, “Direct targeting of host microtubule and actin cytoskeletons by a chlamydial pathogenic effector protein” (Journal of Cell Science, 2024).

Molecular target: Taxol-stabilized microtubules (UniProt P02550 1-451)
Test: co-sedimentation; equilibrium binding of 100 nM GST–CPn0572^595-755 with increasing amounts of Taxol-stabilized MTs; apparent Kd
Conditions: both partners purified

Sequence of Taxol-stabilized microtubules (P02550 whole entry, chain 1 of 2): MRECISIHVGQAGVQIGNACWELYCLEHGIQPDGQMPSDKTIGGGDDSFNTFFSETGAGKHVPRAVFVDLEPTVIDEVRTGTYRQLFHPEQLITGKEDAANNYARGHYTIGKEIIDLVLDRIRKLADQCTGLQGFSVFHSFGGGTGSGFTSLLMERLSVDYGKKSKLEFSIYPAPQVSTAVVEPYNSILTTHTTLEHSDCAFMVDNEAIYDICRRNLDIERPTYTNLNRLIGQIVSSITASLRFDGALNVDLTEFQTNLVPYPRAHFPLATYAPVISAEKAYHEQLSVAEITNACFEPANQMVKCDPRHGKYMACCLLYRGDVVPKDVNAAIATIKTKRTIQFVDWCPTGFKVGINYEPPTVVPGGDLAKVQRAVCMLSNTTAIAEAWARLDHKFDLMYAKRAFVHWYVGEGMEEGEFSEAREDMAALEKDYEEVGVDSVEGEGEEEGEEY
Sequence of Taxol-stabilized microtubules (P02554 whole entry, chain 2 of 2, further chain): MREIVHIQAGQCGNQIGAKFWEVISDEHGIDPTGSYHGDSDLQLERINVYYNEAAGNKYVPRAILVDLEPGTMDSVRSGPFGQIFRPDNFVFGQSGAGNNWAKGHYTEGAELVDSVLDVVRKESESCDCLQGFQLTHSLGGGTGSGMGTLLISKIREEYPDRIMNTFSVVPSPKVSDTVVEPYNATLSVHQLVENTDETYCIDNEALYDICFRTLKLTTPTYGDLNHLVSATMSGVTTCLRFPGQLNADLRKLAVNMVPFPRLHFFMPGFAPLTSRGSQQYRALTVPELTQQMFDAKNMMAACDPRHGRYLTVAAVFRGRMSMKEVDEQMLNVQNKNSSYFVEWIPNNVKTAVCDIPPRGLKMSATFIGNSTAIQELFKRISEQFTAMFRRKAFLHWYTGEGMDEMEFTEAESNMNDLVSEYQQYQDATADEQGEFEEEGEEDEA

B1: GST–CPn0572^595-755 (domain or fragment, Chlamydia pneumoniae (Cpn GiD), UniProt Q9Z7Y1 595-755, looked up)
chain: VATTITPQARTASTSTTSIGTGTESTSTTSTGTGTGSVSTQSTGVGTPTTTTRSTGTSATTTTSSASTQTPQAPLPSGTRHVATISLVRNAAGRSIVLQQGGRSQSFPIPPSGTGTQNMGAQLWAAASQVASTLGQVVNQAATAGSQPSSRRSSPTSPRRK
notes: Cloned into a modified pGEX-5X-1 in which the factor Xa site is replaced by a TEV protease site; source: E. coli Rosetta (DE3), purified (glutathione agarose beads)
- Kd: 70 nM
